Target: γ-secretase (human; HeLa cell membrane / solubilized HeLa membrane; endogenous in HEK293 cells) (human, UniProt P49768 1-467; Q92542 34-709; Q9NZ42 1-101; Q96BI3 1-265)

| Binder | IC50 [µM] |
| --- | --- |
| LVFFGED [Aβ17-23 heptapeptide with the Flemish mutation (A21G)] | 5.27 |
| LVFFAKD [Aβ17-23 heptapeptide with the Italian mutation (E22K)] | 2.13 |
| LVFFAEN [Aβ17-23 heptapeptide with the Iowa mutation (D23N)] | 2.94 |
| LVFFAGD [Aβ17-23 heptapeptide with the Arctic mutation (E22G)] | 3.89 |
| LVFFAQD [Aβ17-23 heptapeptide with the Dutch mutation (E22Q)] | 2.12 |

From patent US20100285988A1 (published 2010)
